From the Human Domainome abundance scans (Beltran et al. 2025)
± gives the uncertainty stated by the source.

B1: Syntaxin-binding protein 4, residues 493 to 538; numbered along this chain, Q6ZWJ1 (parent)
chain: LDMDCLPYGWEEAYTADGIKYFINHVTQTTSWIHPVMSVLNLSRSE

Variants of: B1
Assay: abundance fitness (aPCA) (normalised: wild type 0, dead -1); higher = more abundant; growth selection in yeast, the domain comes from the species named
Details: Homo sapiens

Variant | abundance fitness
H34N | -0.141 ± 0.13
H34Y | -0.689 ± 0.15
H34M | -0.74 ± 0.17
H34C | -0.439 ± 0.12
H34G | -0.822 ± 0.1
D4S | -0.221 ± 0.082
D4L | -0.638 ± 0.094
D4N | -0.098 ± 0.088
E11S | -0.433 ± 0.081
E11G | -0.827 ± 0.082
Y14N | -0.994 ± 0.17
Y21G | -0.873 ± 0.092
Y21A | -0.952 ± 0.12
Y21D | -0.989 ± 0.18
Y21N | -0.731 ± 0.19
Y21I | -0.894 ± 0.36
D17V | -0.648 ± 0.097
D17Y | -0.881 ± 0.14
G18K | -0.453 ± 0.12
G18Q | -0.661 ± 0.12
G18S | -0.725 ± 0.091
G18N | -0.845 ± 0.15
K20D | -0.743 ± 0.14

Variant | abundance fitness
K20S | -0.836 ± 0.1
K20L | -0.794 ± 0.094
A13C | -0.676 ± 0.12
W32S | -0.679 ± 0.11
W32F | -0.558 ± 0.16
W32V | -0.787 ± 0.12
W10G | -0.716 ± 0.078
M3T | 0.287 ± 0.086
P35F | -0.895 ± 0.16
P35S | -0.661 ± 0.11
P35T | -0.686 ± 0.16
I23V | 0.023 ± 0.098
I23E | -1.08 ± 0.18
C5Y | -0.268 ± 0.088
C5E | 0.234 ± 0.094
C5A | 0.238 ± 0.084
C5S | 0.142 ± 0.081
C5H | -0.06 ± 0.14
C5D | 0.321 ± 0.12
S38L | -0.78 ± 0.11
T27E | -0.672 ± 0.13
T27Y | 0.394 ± 0.15
R44I | -1.3 ± 0.33

Variant | abundance fitness
R44F | -0.881 ± 0.18
R44M | -0.292 ± 0.15
T15G | -0.561 ± 0.082
T15N | -0.806 ± 0.14
T15S | -0.672 ± 0.085
T15E | -0.859 ± 0.16
S45M | -0.986 ± 0.29
D2P | -0.985 ± 0.16
D2M | -0.334 ± 0.14
L40C | -0.154 ± 0.11
L40E | 0.111 ± 0.11
G9F | -0.926 ± 0.15
G9T | -0.833 ± 0.099
G9K | -0.807 ± 0.11
E46C | 0.486 ± 0.49
E46G | 0.23 ± 0.12
E46R | -0.132 ± 0.2
E46D | -0.243 ± 0.13
S43K | -0.846 ± 0.23
S43F | -0.531 ± 0.12
S43I | -0.606 ± 0.16
S43L | -0.698 ± 0.14
S43E | 0.119 ± 0.11

Variant | abundance fitness
S43D | 0.129 ± 0.12
S43Y | -0.876 ± 0.24
F22D | -0.794 ± 0.22
F22E | -0.789 ± 0.14
F22T | -0.458 ± 0.1
F22R | -0.872 ± 0.092
F22Q | -0.823 ± 0.16
F22K | -0.637 ± 0.14
L1H | -0.269 ± 0.33
L1S | 0.28 ± 0.13
Y8L | -0.367 ± 0.082
Y8D | 0.326 ± 0.1
Y8K | 0.109 ± 0.095
Y8S | 0.138 ± 0.075
Y8Q | -0.119 ± 0.1
T29S | -0.475 ± 0.098
T29Q | -0.956 ± 0.39
N24M | -0.978 ± 0.27
N24Y | -0.638 ± 0.23
N24P | -0.837 ± 0.17
N24G | -0.72 ± 0.092
N24W | -0.609 ± 0.13
